The results in this text go back to publication PMC6868385.

The target in the experiment is GFP-tagged BLM (Bloom helicase) (human) (UniProt P54132). The experiment can be described thus: single-molecule fluorescence intensity.

For “GFP-tagged BLM (Bloom helicase), P54132 1-1417 (enzyme; other documents disagree on this pair)”, the stoichiometry N (molecules of GFP–BLM per complex) is 3.1.
